From patent US20030013169, “Transcription factor E2F DNA-binding domain inhibitor peptides and their use” (published 2003)

Target: E2F1/DP1 heterodimer (Homo sapiens, UniProt Q01094;Q14186 Q01094:64-301,Q14186:85-249)
Experiment: EMSA; binding inhibited by peptides SEQ 2, 4, 5 with IC50 50-100 uM; about 100-fold lower for MAP-branched SEQ 2; room temperature
Details: tags: His-E2F1 (pET28b); GST-DP1; label: 32P fill-in
Method: Purified E2F1 N1-His (64-301) and DP1 N2-GST (84-249) were incubated at 10 μg/ml in a buffer containing 10 mM HEPES, […], 1 mM EDTA, […], 33 mg/ml BSA and 0.1 μg of sonicated salmon sperm for 10 minutes on ice. ³²P-labelled probe was added and the reaction mixture was incubated at room temperature for 20 minutes. Probes were labelled by filling-in 5′ overhanging ends of 4-7 bases. Samples were run on 4% non denaturing polyacrylamide gel in 0.5% TBE at 4° C. Gels were exposed to X-ray films. Nuclear extract (3 μg) was incubated in 17 μl buffer containing 0.3 M NaCl, 0.4 M Tris pH 7.9, 100 mM EDTA, 0.4 M DTT, 13% glycerol, 1 μg of sonicated salmon sperm on ice. The samples were then incubated for 10 minutes at 30° C. and cooled on ice. ³²P-labelled probe was added, the reaction mixtures were incubated for another 10 minutes at 30° C. and then cooled on ice.
The inhibitory potential of the peptides on E2F function was analysed in band shift assays with recombinant E2F1 and DP1. […] The IC₅₀ concentrations for the 3 peptides were in the range of 50-100 μM. Inhibition to various extends was also observed using recombinant fragments of E2F2, E2F3, E2F4, E2F5, respectively. Approximately 100-fold lower IC50 values were found with a branched molecule consisting of 4 copies of SEQ ID NO:2 linked by MAP (multiple antigen peptide).

E2F1/DP1 heterodimer, sequence (Q01094 64-301, chain 1 of 2): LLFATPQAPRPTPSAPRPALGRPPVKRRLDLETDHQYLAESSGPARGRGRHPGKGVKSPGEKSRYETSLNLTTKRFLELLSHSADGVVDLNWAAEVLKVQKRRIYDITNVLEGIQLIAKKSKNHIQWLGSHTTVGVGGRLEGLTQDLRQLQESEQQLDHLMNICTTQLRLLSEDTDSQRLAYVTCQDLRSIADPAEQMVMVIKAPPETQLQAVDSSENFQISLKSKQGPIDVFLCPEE
E2F1/DP1 heterodimer, sequence (Q14186 85-249, chain 2 of 2): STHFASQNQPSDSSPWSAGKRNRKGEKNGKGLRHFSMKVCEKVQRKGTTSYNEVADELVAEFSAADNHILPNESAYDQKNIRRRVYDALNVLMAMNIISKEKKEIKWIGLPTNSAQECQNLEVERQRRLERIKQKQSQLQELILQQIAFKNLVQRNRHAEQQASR

B1: B-myb E2F probe (dsDNA)
DNA 1: CGACGCGCTTGGCGGGAGATAGAAAAGTGC
DNA 2: GCACTTTTCTATCTCCCGCCAAGCGCGTCG
binding result: binds
